B1: TGF-beta-activated kinase 1 and MAP3K7-binding protein 3, residues 12 to 50; numbered along this chain, Q8N5C8 (parent)
chain: VLHDLRQRFPEIPEGVVSQCMLQNNNNLEACCRALSQES

Variants of: B1
Assay: abundance fitness (aPCA) (normalised: wild type 0, dead -1); higher = more abundant; growth selection in yeast, the domain comes from the species named
Conditions: Homo sapiens

Abundance fitness, by site and new letter:
L5: S -0.914 | V -0.896 | M -0.493 | Q -0.589 | K -0.532 | D -0.191 | W -0.885 | H -0.4 | A -0.905 | I 0.286 | R -0.722 | E -0.362
G15: C 0.03 | Y 0.139 | E 0.281 | I -0.154 | W 0.087 | K 0.135 | D 0.217 | S 0.122 | L -0.162 | P 0.003 | V -0.016 | N 0.05 | R 0.074 | A 0.153 | H 0.25 | M -0.079 | F -0.138
P13: D -0.22 | C -0.766 | V -0.774 | A -0.513 | S -0.42 | T -0.767 | H -0.694 | Q -0.62 | I -0.452 | R -0.782 | G -0.666 | Y -0.926 | W -0.771 | K -0.51 | M -0.517
V16: N -0.552 | Y 0.122 | D -0.264 | F -0.71 | C -0.638 | P -0.927 | A -0.297 | L -0.228 | S -0.58 | W -0.683 | K -0.114 | G -0.711 | Q -0.155 | E -0.105 | T -0.16 | R 0.032 | H -0.372 | M -0.073
Q19: M -0.004 | V -0.273 | I 0.384 | N -0.019 | R 0.135 | H -0.175 | K 0.139 | P -0.547 | E 0.128 | A 0.186 | W -0.135 | S -0.039 | L -0.1 | C -0.114 | T -0.077 | Y -0.345
E11: A -0.511 | Q -0.166 | S -0.189 | H -0.11 | P -0.764 | R -0.444 | W -0.126 | G -0.13 | L -0.416 | T -0.214 | Y -0.324 | M -0.213 | D 0.111 | K -0.535 | V -0.726 | F -0.479 | N -0.115
R6: W -0.809 | Q -0.19 | G -0.486 | C 0.107 | H -0.036 | L 0.056 | V -0.211 | A -0.279 | T -0.375 | P -0.91 | M 0.142 | S -0.319 | K 0.11 | E -0.212
P10: G -0.78 | M -0.806 | W -0.962 | Q -0.956 | E -0.758 | S -0.595 | T -0.906 | K -1.07 | V -0.921 | D -0.672 | A -0.943 | L -1.16 | R -0.96
M21: F -0.487 | R -0.872 | P -0.68 | V -0.349 | G -0.811 | T -1.17 | H -0.82 | Q -0.937 | W -0.732 | S -0.718 | E -0.695 | D -0.691 | L -0.015 | A -0.347 | Y -0.189
R8: W -0.975 | G -0.944 | L -0.168 | D -0.722 | P -1.08 | C -0.987 | H -0.907 | M 0.071 | K 0.054 | I -0.403 | A -0.544 | E -0.469 | T -0.877 | Q -0.73
C20: D 0.048 | Q -0.175 | R -0.405 | I 0.109 | L -0.06 | S -0.103 | M 0.028 | W -0.37 | A 0.173 | T 0.063 | E -0.082 | P -0.51 | F -0.096 | H -0.576 | G -0.26 | Y 0.007

Source: the Human Domainome abundance scans (Beltran et al. 2025)
